The values below come from patent US20200240995.

The target in series [1] is Dual luciferase reporter (DLR) with N(ε)-crotonyl-lysine at K529 of the Firefly enzyme.
In series [2] the target is Dual luciferase reporter (DLR) with N(ε)-tert.-butyl-oxycarbonyl-lysine at K529 of the Firefly enzyme.
The target in series [3] is Dual luciferase reporter (DLR) with N(ε)-allyl-oxycarbonyl-lysine at K529 of the Firefly enzyme.
The target of series [4] is Dual luciferase reporter (DLR) with N(ε)-acetyl-lysine at K529 of the Firefly enzyme.
Chain of Dual luciferase reporter (DLR) with N(ε)-acetyl-lysine at K529 of the Firefly enzyme (chain, as listed by the source): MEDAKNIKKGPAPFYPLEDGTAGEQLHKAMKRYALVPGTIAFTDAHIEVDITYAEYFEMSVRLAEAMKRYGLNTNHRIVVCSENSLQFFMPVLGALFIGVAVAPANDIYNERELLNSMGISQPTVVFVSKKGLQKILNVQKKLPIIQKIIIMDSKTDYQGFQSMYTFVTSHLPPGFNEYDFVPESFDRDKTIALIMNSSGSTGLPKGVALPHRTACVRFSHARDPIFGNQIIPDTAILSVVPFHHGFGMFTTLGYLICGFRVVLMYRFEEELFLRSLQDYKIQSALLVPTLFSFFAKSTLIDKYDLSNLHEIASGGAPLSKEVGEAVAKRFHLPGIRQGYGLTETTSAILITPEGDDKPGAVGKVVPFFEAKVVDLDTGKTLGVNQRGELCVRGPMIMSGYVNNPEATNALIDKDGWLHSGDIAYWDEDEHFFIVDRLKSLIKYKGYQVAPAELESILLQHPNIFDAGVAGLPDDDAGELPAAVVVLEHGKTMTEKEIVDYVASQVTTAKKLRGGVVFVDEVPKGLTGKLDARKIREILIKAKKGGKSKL

Chain of Dual luciferase reporter (DLR) with N(ε)-tert.-butyl-oxycarbonyl-lysine at K529 of the Firefly enzyme (chain, as listed by the source): as above
Chain of Dual luciferase reporter (DLR) with N(ε)-allyl-oxycarbonyl-lysine at K529 of the Firefly enzyme (chain, as listed by the source): as above
Chain of Dual luciferase reporter (DLR) with N(ε)-crotonyl-lysine at K529 of the Firefly enzyme (chain, as listed by the source): as above

B1: Dealocase-1 (protein)
chain: KPRVLVLTGAGISAESGIRTFRAADGLWEEHRVEDVSTPEGFDRDPELVQAFWNAWRRQLQQPEIQPNAAHLALAKLQDALGDRFLLVTQNVDNLHERAGNTNVIHMHGELLKVRCSQSGQVLDWTGDVTPEDKCHCCQFPAPLRPHVVWFGEMPLGMDEIYMALSMADIFIAIGTSGHVYPAAGFVHEAKLHGAHTVELNLEPSQVGNEFAEKYYGPASQVVPEFVEKLLKGLKAGSIA
For the protein B1, the DLR activity [rel. to wild-type] (rel. to wild-type) turned out to be 5.73 in series [1], 2.88 in series [2], 10.8 in series [3] and 0.49 in series [4].

B2: Decrotonylase-1 (protein)
chain: KPRVLVLTGAGISAESGIRTFRAADGLWEEHRVEDVRTPEGFDRDPELVQAFGNATRRQLQQPEIQPNAAHLALAKLQDALGDRFLLVTQNRDNLHERAGNTNVIHMHGELLKVRCSQSGQVLDWTGDVTPEDKCHCCQFPAPLRPHLVWFGEMPLGMDEIYMALSMADIFIAIGTSGHVYPAAGFVHEAKLHGAHTVELNLEPSQVGNEFAEKYYGPASQVVPEFVEKLLKGLKAGSIA
For the protein B2, the DLR activity [rel. to wild-type] (rel. to wild-type) in series [1] came out at 0.1; in series [2], 0.04; in series [3], 0.02; in series [4], 0.

B3: Dealocase-2 (protein)
chain: KPRVLVLTGAGISAESGIRTFRAADGLWEEHRVEDVGTPEGFDRDPELVQAFYNAGRRQLQQPEIQPNAAHLALAKLQDALGDRFLLVTQNVDNLHERAGNTNVIHMHGELLKVRCSQSGQVLDWTGDVTPEDKCHCCQFPAPLRPHVVWFGEMPLGMDEIYMALSMADIFIAIGTSGHVYPAAGFVHEAKLHGAHTVELNLEPSQVGNEFAEKYYGPASQVVPEFVEKLLKGLKAGSIA
As to B3, the DLR activity [rel. to wild-type] (rel. to wild-type) in series [1] came to 2.11; in series [2] it was 0.77; in series [3], 10.2; in series [4], 1.19.

B4: Debocylase-1 (protein)
chain: KPRVLVLTGAGISAESGIRTFRAADGLWEEHRVEDVATPEGFDRDPELVQAFYNARRRQLQQPEIQPNAAHLALAKLQDALGDRFLLVTQNVDNLHERAGNTNVIHMHGELLKVRCSQSGQVLDWTGDVTPEDKCHCCQFPAPLRPHLVWFGEMPLGMDEIYMALSMADIFIAIGTSGHVYPAAGFVHEAKLHGAHTVELNLEPSQVGNEFAEKYYGPASQVVPEFVEKLLKGLKAGSIA
In the case of B4, the DLR activity [rel. to wild-type] (rel. to wild-type) in series [1] stood at 2.9; in series [2] it was 8.65; in series [3] it was 8.35; in series [4], 1.25.

B5: Dealocase-3 (protein)
chain: KPRVLVLTGAGISAESGIRTFRAADGLWEEHRVEDVATPEGFDRDPELVQAFYNARRRQLQQPEIQPNAAHLALAKLQDALGDRFLLVTQNSDNLHERAGNTNVIHMHGELLKVRCSQSGQVLDWTGDVTPEDKCHCCQFPAPLRPHLVWFGEMPLGMDEIYMALSMADIFIAIGTSGHVYPAAGFVHEAKLHGAHTVELNLEPSQVGNEFAEKYYGPASQVVPEFVEKLLKGLKAGSIA
Take B5: the DLR activity [rel. to wild-type] (rel. to wild-type) turned out to be 1 in series [1], 0.65 in series [2], 6 in series [3] and 0.35 in series [4].
